# Values of other authors in PMC3433420.
# Read-outs that look alike come from different tables or passages of the source.
# Key:
# Conditions in all cases: cited from earlier work
# SHC1-PTB (Homo sapiens) [1] = target: SHC1-PTB (Homo sapiens) (UniProt P29353)
# ABL2 (Homo sapiens) [2] = target: ABL2 (Homo sapiens) (UniProt P42684)
# PLCG2-N (Homo sapiens) = PLCG2-N (Homo sapiens) (UniProt P16885)
# RASA1-NC (Homo sapiens) [3] = target: RASA1-NC (Homo sapiens) (UniProt P20936)
# GRB7 (Homo sapiens) [4] = target: GRB7 (Homo sapiens) (UniProt Q14451)
# Sequence of GRB7 (Homo sapiens) (Q14451 426-532): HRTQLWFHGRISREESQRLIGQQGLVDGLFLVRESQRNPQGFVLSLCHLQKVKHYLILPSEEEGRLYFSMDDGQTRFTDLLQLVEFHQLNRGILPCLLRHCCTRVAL
# BLK (Homo sapiens) = BLK (Homo sapiens) (UniProt P51451)
# Sequence of BLK (Homo sapiens) (P51451 119-225): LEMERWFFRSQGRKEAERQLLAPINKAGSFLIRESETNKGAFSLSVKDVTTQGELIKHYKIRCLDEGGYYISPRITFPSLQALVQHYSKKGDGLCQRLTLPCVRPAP
# YES1 (Homo sapiens) [5] = target: YES1 (Homo sapiens) (UniProt P07947)
# Sequence of YES1 (Homo sapiens) (P07947 153-260): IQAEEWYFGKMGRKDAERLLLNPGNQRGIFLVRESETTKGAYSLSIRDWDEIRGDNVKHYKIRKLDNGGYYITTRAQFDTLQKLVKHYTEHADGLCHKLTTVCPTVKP
# PLCG2-NC (Homo sapiens) [6] = target: PLCG2-NC (Homo sapiens) (UniProt P16885)
# Sequence of PLCG2-NC (Homo sapiens) (P16885 527-740): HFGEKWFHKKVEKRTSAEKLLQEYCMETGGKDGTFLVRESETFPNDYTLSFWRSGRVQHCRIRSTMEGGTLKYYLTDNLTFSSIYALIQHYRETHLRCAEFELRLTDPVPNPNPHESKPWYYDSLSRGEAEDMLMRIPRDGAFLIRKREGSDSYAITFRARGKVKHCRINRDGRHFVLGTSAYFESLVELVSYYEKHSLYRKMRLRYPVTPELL
# PIK3R3-N (Homo sapiens) [7] = target: PIK3R3-N (Homo sapiens) (UniProt Q92569)
# PIK3R3-NC (Homo sapiens) [8] = target: PIK3R3-NC (Homo sapiens) (UniProt Q92569)
# PIK3R1-N (Homo sapiens) [9] = target: PIK3R1-N (Homo sapiens) (UniProt P27986)
# Sequence of PIK3R1-N (Homo sapiens) (P27986 328-723): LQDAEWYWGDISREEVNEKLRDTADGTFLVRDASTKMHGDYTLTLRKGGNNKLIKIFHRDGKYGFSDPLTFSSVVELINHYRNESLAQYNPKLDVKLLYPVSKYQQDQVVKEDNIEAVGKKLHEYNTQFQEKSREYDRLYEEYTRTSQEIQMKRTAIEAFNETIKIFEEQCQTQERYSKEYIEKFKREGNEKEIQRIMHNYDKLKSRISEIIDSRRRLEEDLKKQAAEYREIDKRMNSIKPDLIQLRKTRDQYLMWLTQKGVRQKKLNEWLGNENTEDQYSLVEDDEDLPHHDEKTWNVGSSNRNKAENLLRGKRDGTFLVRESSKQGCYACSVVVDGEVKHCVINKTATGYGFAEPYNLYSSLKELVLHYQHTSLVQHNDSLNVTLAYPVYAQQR
# PIK3R2-NC (Homo sapiens) [10] = target: PIK3R2-NC (Homo sapiens) (UniProt O00459)
# Sequence of PIK3R2-NC (Homo sapiens) (O00459 325-721): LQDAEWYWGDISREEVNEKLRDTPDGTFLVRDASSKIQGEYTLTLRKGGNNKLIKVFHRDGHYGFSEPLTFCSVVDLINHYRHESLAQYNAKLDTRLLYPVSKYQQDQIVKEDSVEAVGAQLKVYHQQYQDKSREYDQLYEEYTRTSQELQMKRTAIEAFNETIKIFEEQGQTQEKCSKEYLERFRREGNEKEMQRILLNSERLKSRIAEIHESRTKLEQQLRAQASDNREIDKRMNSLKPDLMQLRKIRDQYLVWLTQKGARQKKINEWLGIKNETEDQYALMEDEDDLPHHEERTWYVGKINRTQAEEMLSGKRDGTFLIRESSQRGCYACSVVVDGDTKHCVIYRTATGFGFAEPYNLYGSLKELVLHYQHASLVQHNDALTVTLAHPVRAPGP
# PIK3R2-N (Homo sapiens) = PIK3R2-N (Homo sapiens) (UniProt O00459)
# Sequence of PIK3R2-N (Homo sapiens) (O00459 325-721): as above
# PIK3R1-NC (Homo sapiens) [11] = target: PIK3R1-NC (Homo sapiens) (UniProt P27986)
# Sequence of PIK3R1-NC (Homo sapiens) (P27986 328-723): as the sequence (P27986 328-723) above
# ABL2 (Homo sapiens) [12] = target: ABL2 (Homo sapiens) (UniProt P42684); remark: listed apart in the source
# PIK3R1-NC (Homo sapiens) [13] = target: PIK3R1-NC (Homo sapiens) (UniProt P27986); remark: listed apart in the source
# TENC1 (Homo sapiens) [14] = target: TENC1 (Homo sapiens) (UniProt Q63HR2)
# Sequence of TENC1 (Homo sapiens) (Q63HR2 1135-1252): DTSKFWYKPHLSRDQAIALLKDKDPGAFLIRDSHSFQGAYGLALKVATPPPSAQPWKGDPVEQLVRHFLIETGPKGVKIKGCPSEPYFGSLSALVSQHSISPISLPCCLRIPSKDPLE
# ABL2 (Homo sapiens) [15] = target: ABL2 (Homo sapiens) (UniProt P42684); remark: listed apart in the source
# RASA1-N (Homo sapiens) [16] = target: RASA1-N (Homo sapiens) (UniProt P20936)
# Sequence of RASA1-N (Homo sapiens) (P20936 176-446): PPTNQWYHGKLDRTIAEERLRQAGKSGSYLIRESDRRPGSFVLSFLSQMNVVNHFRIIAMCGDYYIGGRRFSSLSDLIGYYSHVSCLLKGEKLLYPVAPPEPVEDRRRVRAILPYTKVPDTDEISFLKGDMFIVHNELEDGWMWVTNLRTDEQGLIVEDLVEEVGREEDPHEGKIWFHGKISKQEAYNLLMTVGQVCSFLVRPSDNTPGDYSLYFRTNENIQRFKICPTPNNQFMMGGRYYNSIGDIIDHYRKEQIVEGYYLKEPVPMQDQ
# PIK3R3-N (Homo sapiens) [17] = target: PIK3R3-N (Homo sapiens) (UniProt Q92569); remark: listed apart in the source
# SYK-NC (Homo sapiens) [18] = target: SYK-NC (Homo sapiens) (UniProt P43405)
# PIK3R3-C (Homo sapiens) = PIK3R3-C (Homo sapiens) (UniProt Q92569)
# PIK3R2-NC (Homo sapiens) [19] = target: PIK3R2-NC (Homo sapiens) (UniProt O00459); remark: listed apart in the source
# PIK3R1-N (Homo sapiens) [20] = target: PIK3R1-N (Homo sapiens) (UniProt P27986); remark: listed apart in the source
# VAV1 (Homo sapiens) [21] = target: VAV1 (Homo sapiens) (UniProt P15498)
# Sequence of VAV1 (Homo sapiens) (P15498 666-770): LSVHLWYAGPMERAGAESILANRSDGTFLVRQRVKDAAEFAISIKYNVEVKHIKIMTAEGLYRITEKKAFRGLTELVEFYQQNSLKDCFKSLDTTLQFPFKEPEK
# PIK3R3-NC (Homo sapiens) [22] = target: PIK3R3-NC (Homo sapiens) (UniProt Q92569); remark: listed apart in the source
# ABL2 (Homo sapiens) [23] = target: ABL2 (Homo sapiens) (UniProt P42684); remark: listed apart in the source
# RASA1-N (Homo sapiens) [24] = target: RASA1-N (Homo sapiens) (UniProt P20936); remark: listed apart in the source
# RASA1-NC (Homo sapiens) [25] = target: RASA1-NC (Homo sapiens) (UniProt P20936); remark: listed apart in the source
# PLCG2-NC (Homo sapiens) [26] = target: PLCG2-NC (Homo sapiens) (UniProt P16885); remark: listed apart in the source
# SLA (Homo sapiens) = SLA (Homo sapiens) (UniProt Q13239)
# Sequence of SLA (Homo sapiens) (Q13239 79-180): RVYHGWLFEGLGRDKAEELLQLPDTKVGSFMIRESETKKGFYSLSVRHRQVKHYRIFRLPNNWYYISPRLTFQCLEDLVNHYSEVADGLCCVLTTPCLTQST
# PIK3R3-NC (Homo sapiens) [27] = target: PIK3R3-NC (Homo sapiens) (UniProt Q92569); remark: listed apart in the source
# ABL2 (Homo sapiens) [28] = target: ABL2 (Homo sapiens) (UniProt P42684); remark: listed apart in the source
# VAV3 (Homo sapiens) = VAV3 (Homo sapiens) (UniProt Q9UKW4)
# Sequence of VAV3 (Homo sapiens) (Q9UKW4 667-771): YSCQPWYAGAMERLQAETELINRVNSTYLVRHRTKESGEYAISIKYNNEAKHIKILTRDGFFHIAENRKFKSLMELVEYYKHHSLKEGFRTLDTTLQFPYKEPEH
# RASA1-C (Homo sapiens) = RASA1-C (Homo sapiens) (UniProt P20936)
# Sequence of RASA1-C (Homo sapiens) (P20936 176-446): as the sequence (P20936 176-446) above
# SHE (Homo sapiens) = SHE (Homo sapiens) (UniProt Q5VZ18)
# Sequence of SHE (Homo sapiens) (Q5VZ18 390-495): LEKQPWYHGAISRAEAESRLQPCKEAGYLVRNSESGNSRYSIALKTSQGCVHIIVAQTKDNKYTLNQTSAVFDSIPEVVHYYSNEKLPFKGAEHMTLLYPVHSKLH
# SHB (Homo sapiens) [29] = target: SHB (Homo sapiens) (UniProt Q15464)
# Sequence of SHB (Homo sapiens) (Q15464 405-509): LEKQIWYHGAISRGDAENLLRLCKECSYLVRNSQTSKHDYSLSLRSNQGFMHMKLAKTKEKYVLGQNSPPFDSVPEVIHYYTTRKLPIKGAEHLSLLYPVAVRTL
# TENC1 (Homo sapiens) [30] = target: TENC1 (Homo sapiens) (UniProt Q63HR2); remark: listed apart in the source
# SHF (Homo sapiens) = SHF (Homo sapiens) (UniProt Q7M4L6)
# Sequence of SHF (Homo sapiens) (Q7M4L6 318-423): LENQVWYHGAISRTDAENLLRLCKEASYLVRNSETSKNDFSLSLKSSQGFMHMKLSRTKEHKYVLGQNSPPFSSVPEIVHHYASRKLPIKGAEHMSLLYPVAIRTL
# GRB10 (Homo sapiens) = GRB10 (Homo sapiens) (UniProt Q13322)
# Sequence of GRB10 (Homo sapiens) (Q13322 488-579): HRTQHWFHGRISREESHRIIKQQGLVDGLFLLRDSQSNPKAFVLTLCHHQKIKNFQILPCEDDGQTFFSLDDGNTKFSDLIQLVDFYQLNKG
# SRC (Homo sapiens) = SRC (Homo sapiens) (UniProt P12931)
# ITK (Homo sapiens) = ITK (Homo sapiens) (UniProt Q08881)
# Sequence of ITK (Homo sapiens) (Q08881 234-343): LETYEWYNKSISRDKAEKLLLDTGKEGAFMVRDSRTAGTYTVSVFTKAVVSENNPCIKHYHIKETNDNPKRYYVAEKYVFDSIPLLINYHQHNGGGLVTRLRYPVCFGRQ
# YES1 (Homo sapiens) [31] = target: YES1 (Homo sapiens) (UniProt P07947); remark: listed apart in the source
# NCK2 (Homo sapiens) = NCK2 (Homo sapiens) (UniProt O43639)
# Sequence of NCK2 (Homo sapiens) (O43639 280-380): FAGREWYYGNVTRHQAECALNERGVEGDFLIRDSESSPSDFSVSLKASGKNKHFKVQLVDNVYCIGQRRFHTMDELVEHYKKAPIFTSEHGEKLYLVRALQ
# PIK3R1-NC (Homo sapiens) [32] = target: PIK3R1-NC (Homo sapiens) (UniProt P27986); remark: listed apart in the source
# PIK3R3-NC (Homo sapiens) [33] = target: PIK3R3-NC (Homo sapiens) (UniProt Q92569); remark: listed apart in the source
# SHC1-PTB (Homo sapiens) [34] = target: SHC1-PTB (Homo sapiens) (UniProt P29353); remark: listed apart in the source
# TNS3 (Homo sapiens) = TNS3 (Homo sapiens) (UniProt Q68CZ2)
# Sequence of TNS3 (Homo sapiens) (Q68CZ2 1167-1287): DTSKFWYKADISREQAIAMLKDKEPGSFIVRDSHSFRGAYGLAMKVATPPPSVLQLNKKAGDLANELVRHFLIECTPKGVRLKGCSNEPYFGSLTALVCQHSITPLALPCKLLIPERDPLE
# VAV1 (Homo sapiens) [35] = target: VAV1 (Homo sapiens) (UniProt P15498); remark: listed apart in the source
# SH2D1B (Homo sapiens) = SH2D1B (Homo sapiens) (UniProt O14796)
# Sequence of SH2D1B (Homo sapiens) (O14796 1-106): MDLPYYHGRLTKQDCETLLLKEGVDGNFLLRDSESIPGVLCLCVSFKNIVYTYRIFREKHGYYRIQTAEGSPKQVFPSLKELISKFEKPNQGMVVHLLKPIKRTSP
# RASA1-NC (Homo sapiens) [36] = target: RASA1-NC (Homo sapiens) (UniProt P20936); remark: listed apart in the source
# PIK3R1-C (Homo sapiens) = PIK3R1-C (Homo sapiens) (UniProt P27986)
# Sequence of PIK3R1-C (Homo sapiens) (P27986 328-723): as the sequence (P27986 328-723) above
# GRB7 (Homo sapiens) [37] = target: GRB7 (Homo sapiens) (UniProt Q14451); remark: listed apart in the source
# SYK-NC (Homo sapiens) [38] = target: SYK-NC (Homo sapiens) (UniProt P43405); remark: listed apart in the source
# SH2D3C (Homo sapiens) = SH2D3C (Homo sapiens) (UniProt Q8N5H7)
# Sequence of SH2D3C (Homo sapiens) (Q8N5H7 215-324): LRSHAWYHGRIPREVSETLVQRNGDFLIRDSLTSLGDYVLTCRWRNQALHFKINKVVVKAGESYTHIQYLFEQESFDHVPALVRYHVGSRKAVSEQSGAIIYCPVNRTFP
# VAV2 (Homo sapiens) = VAV2 (Homo sapiens) (UniProt P52735)
# Sequence of VAV2 (Homo sapiens) (P52735 668-772): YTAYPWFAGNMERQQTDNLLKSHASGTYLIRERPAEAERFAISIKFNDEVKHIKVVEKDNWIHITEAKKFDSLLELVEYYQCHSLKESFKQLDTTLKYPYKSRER
# SHB (Homo sapiens) [39] = target: SHB (Homo sapiens) (UniProt Q15464); remark: listed apart in the source
# YES1 (Homo sapiens) [40] = target: YES1 (Homo sapiens) (UniProt P07947); remark: listed apart in the source
# ABL2 (Homo sapiens) [41] = target: ABL2 (Homo sapiens) (UniProt P42684); remark: listed apart in the source
# Sequence of ABL2 (Homo sapiens) (P42684 168-268): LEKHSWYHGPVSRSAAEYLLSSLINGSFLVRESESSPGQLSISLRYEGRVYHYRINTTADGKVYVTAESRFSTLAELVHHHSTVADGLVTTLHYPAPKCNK
# Sequence of RASA1-NC (Homo sapiens) (P20936 176-446): as the sequence (P20936 176-446) above
# Sequence of SHC1-PTB (Homo sapiens) (P29353 483-583): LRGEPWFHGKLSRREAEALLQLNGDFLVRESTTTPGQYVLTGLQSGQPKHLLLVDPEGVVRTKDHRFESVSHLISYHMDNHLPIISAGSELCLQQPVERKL
# Sequence of PLCG2-N (Homo sapiens) (P16885 527-740): as the sequence (P16885 527-740) above
substance,measurement,setting,value
…pYWNHSLPPd,apparent Kd (screen),SHC1-PTB (Homo sapiens) [1],0.509 µM
same,apparent Kd (screen),ABL2 (Homo sapiens) [2],0.034 µM
…pYHADGGKVd,apparent Kd (screen),PLCG2-N (Homo sapiens),0.647 µM
same,apparent Kd (screen),RASA1-NC (Homo sapiens) [3],1.4 µM
same,apparent Kd (screen),GRB7 (Homo sapiens) [4],1.2 µM
same,apparent Kd (screen),BLK (Homo sapiens),0.718 µM
same,apparent Kd (screen),YES1 (Homo sapiens) [5],1.89 µM
same,apparent Kd (screen),PLCG2-NC (Homo sapiens) [6],1.1 µM
…pYTPMSGNQd,apparent Kd (screen),PIK3R3-N (Homo sapiens) [7],0.888 µM
same,apparent Kd (screen),PIK3R3-NC (Homo sapiens) [8],0.576 µM
same,apparent Kd (screen),PIK3R1-N (Homo sapiens) [9],0.541 µM
same,apparent Kd (screen),PIK3R2-NC (Homo sapiens) [10],0.461 µM
same,apparent Kd (screen),PIK3R2-N (Homo sapiens),0.201 µM
same,apparent Kd (screen),PIK3R1-NC (Homo sapiens) [11],1.44 µM
same,apparent Kd (screen),ABL2 (Homo sapiens) [12],0.659 µM
…pYEYMDVGS,apparent Kd (screen),PIK3R1-NC (Homo sapiens) [13],0.375 µM
same,apparent Kd (screen),TENC1 (Homo sapiens) [14],0.903 µM
same,apparent Kd (screen),ABL2 (Homo sapiens) [15],0.158 µM
same,apparent Kd (screen),RASA1-N (Homo sapiens) [16],0.671 µM
same,apparent Kd (screen),PIK3R3-N (Homo sapiens) [17],0.553 µM
same,apparent Kd (screen),SYK-NC (Homo sapiens) [18],0.851 µM
same,apparent Kd (screen),PIK3R3-C (Homo sapiens),0.27 µM
same,apparent Kd (screen),PIK3R2-NC (Homo sapiens) [19],0.385 µM
same,apparent Kd (screen),PIK3R1-N (Homo sapiens) [20],1.25 µM
same,apparent Kd (screen),VAV1 (Homo sapiens) [21],2 µM
same,apparent Kd (screen),PIK3R3-NC (Homo sapiens) [22],0.097 µM
…pYMDVGSDL,apparent Kd (screen),ABL2 (Homo sapiens) [23],1.13 µM
same,apparent Kd (screen),RASA1-N (Homo sapiens) [24],2 µM
same,apparent Kd (screen),RASA1-NC (Homo sapiens) [25],2 µM
same,apparent Kd (screen),PLCG2-NC (Homo sapiens) [26],2 µM
same,apparent Kd (screen),SLA (Homo sapiens),2 µM
same,apparent Kd (screen),PIK3R3-NC (Homo sapiens) [27],1.51 µM
…pYLLNWCVQd,apparent Kd (screen),ABL2 (Homo sapiens) [28],0.201 µM
same,apparent Kd (screen),VAV3 (Homo sapiens),0.96 µM
same,apparent Kd (screen),RASA1-C (Homo sapiens),1.95 µM
same,apparent Kd (screen),SHE (Homo sapiens),1.38 µM
same,apparent Kd (screen),SHB (Homo sapiens) [29],0.276 µM
same,apparent Kd (screen),TENC1 (Homo sapiens) [30],1.15 µM
same,apparent Kd (screen),SHF (Homo sapiens),1.06 µM
same,apparent Kd (screen),GRB10 (Homo sapiens),0.353 µM
same,apparent Kd (screen),SRC (Homo sapiens),0.084 µM
same,apparent Kd (screen),ITK (Homo sapiens),0.31 µM
same,apparent Kd (screen),YES1 (Homo sapiens) [31],0.022 µM
same,apparent Kd (screen),NCK2 (Homo sapiens),0.195 µM
same,apparent Kd (screen),PIK3R1-NC (Homo sapiens) [32],1.82 µM
same,apparent Kd (screen),PIK3R3-NC (Homo sapiens) [33],1.87 µM
same,apparent Kd (screen),SHC1-PTB (Homo sapiens) [34],1.5 µM
same,apparent Kd (screen),TNS3 (Homo sapiens),1.89 µM
same,apparent Kd (screen),VAV1 (Homo sapiens) [35],0.373 µM
same,apparent Kd (screen),SH2D1B (Homo sapiens),1.6 µM
same,apparent Kd (screen),RASA1-NC (Homo sapiens) [36],0.155 µM
same,apparent Kd (screen),PIK3R1-C (Homo sapiens),1.85 µM
same,apparent Kd (screen),GRB7 (Homo sapiens) [37],0.456 µM
same,apparent Kd (screen),SYK-NC (Homo sapiens) [38],0.24 µM
same,apparent Kd (screen),SH2D3C (Homo sapiens),0.052 µM
same,apparent Kd (screen),VAV2 (Homo sapiens),0.472 µM
…pYSSDPTGAd,apparent Kd (screen),SHB (Homo sapiens) [39],0.862 µM
same,apparent Kd (screen),YES1 (Homo sapiens) [40],0.295 µM
same,apparent Kd (screen),ABL2 (Homo sapiens) [41],2 µM
